Reference: the Human Domainome abundance scans (Beltran et al. 2025)
± gives the uncertainty stated by the source.

Experiment: abundance fitness (aPCA) (normalised: wild type 0, dead -1); higher = more abundant; growth selection in yeast, the domain comes from the species named
Settings: Homo sapiens

Substance	abundance fitness
DnaJ homolog subfamily B member 1 G40S, P25685	-0.195 ± 0.086
DnaJ homolog subfamily B member 1 G40V, P25685	-0.133 ± 0.079
DnaJ homolog subfamily B member 1 G40Y, P25685	-0.182 ± 0.15
DnaJ homolog subfamily B member 1 H32A, P25685	-0.154 ± 0.16
DnaJ homolog subfamily B member 1 H32C, P25685	-0.106 ± 0.14
DnaJ homolog subfamily B member 1 H32D, P25685	-0.241 ± 0.23
DnaJ homolog subfamily B member 1 H32E, P25685	0.035 ± 0.091
DnaJ homolog subfamily B member 1 H32F, P25685	-0.139 ± 0.16
DnaJ homolog subfamily B member 1 H32G, P25685	-0.007 ± 0.072
DnaJ homolog subfamily B member 1 H32I, P25685	-0.246 ± 0.12
DnaJ homolog subfamily B member 1 H32K, P25685	-0.777 ± 0.16
DnaJ homolog subfamily B member 1 H32L, P25685	-0.025 ± 0.082
DnaJ homolog subfamily B member 1 H32M, P25685	0.014 ± 0.089
DnaJ homolog subfamily B member 1 H32N, P25685	0.017 ± 0.15
DnaJ homolog subfamily B member 1 H32P, P25685	-0.199 ± 0.14
DnaJ homolog subfamily B member 1 H32R, P25685	-0.057 ± 0.061
DnaJ homolog subfamily B member 1 H32S, P25685	0.05 ± 0.073
DnaJ homolog subfamily B member 1 H32T, P25685	-0.048 ± 0.072
DnaJ homolog subfamily B member 1 H32W, P25685	-0.155 ± 0.075
DnaJ homolog subfamily B member 1 H32Y, P25685	-0.192 ± 0.21
DnaJ homolog subfamily B member 1 I20A, P25685	-0.63 ± 0.092

Substance	abundance fitness
DnaJ homolog subfamily B member 1 I20C, P25685	-0.431 ± 0.079
DnaJ homolog subfamily B member 1 I20D, P25685	-0.766 ± 0.17
DnaJ homolog subfamily B member 1 I20E, P25685	-0.956 ± 0.15
DnaJ homolog subfamily B member 1 I20F, P25685	-0.708 ± 0.1
DnaJ homolog subfamily B member 1 I20G, P25685	-0.9 ± 0.071
DnaJ homolog subfamily B member 1 I20H, P25685	-0.948 ± 0.13
DnaJ homolog subfamily B member 1 I20K, P25685	-0.86 ± 0.087
DnaJ homolog subfamily B member 1 I20L, P25685	-0.143 ± 0.076
DnaJ homolog subfamily B member 1 I20M, P25685	-0.575 ± 0.12
DnaJ homolog subfamily B member 1 I20N, P25685	-1.02 ± 0.11
DnaJ homolog subfamily B member 1 I20P, P25685	-1.26 ± 0.17
DnaJ homolog subfamily B member 1 I20Q, P25685	-0.759 ± 0.13
DnaJ homolog subfamily B member 1 I20R, P25685	-0.832 ± 0.06
DnaJ homolog subfamily B member 1 I20S, P25685	-0.782 ± 0.061
DnaJ homolog subfamily B member 1 I20W, P25685	-1.42 ± 0.12
DnaJ homolog subfamily B member 1 I48A, P25685	-0.108 ± 0.079
DnaJ homolog subfamily B member 1 I48C, P25685	-0.073 ± 0.11
DnaJ homolog subfamily B member 1 I48D, P25685	-0.667 ± 0.12
DnaJ homolog subfamily B member 1 I48E, P25685	-0.697 ± 0.095
DnaJ homolog subfamily B member 1 I48F, P25685	-0.41 ± 0.13
